The target in assay [1] is T1, FcRL1, overexpressed on 3T3 cells (UniProt Q96LA6 17-429, limits assumed).
T1 construct: whole, on cells
T1 sequence (looked up): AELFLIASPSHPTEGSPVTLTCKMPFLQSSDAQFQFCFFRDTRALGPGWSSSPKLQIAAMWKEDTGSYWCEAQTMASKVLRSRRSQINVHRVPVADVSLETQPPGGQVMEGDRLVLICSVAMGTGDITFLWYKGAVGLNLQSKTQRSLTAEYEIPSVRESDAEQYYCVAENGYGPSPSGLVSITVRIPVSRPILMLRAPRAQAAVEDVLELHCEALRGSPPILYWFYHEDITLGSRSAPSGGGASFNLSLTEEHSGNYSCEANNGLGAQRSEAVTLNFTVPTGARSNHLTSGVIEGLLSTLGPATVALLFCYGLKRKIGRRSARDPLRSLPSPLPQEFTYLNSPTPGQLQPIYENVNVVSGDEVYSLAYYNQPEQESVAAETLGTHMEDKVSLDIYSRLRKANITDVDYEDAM
The assay is described as follows: phage clone on 3T3-FcRL1 cells.

For assay [2], the target named is T2, Fc Receptor-like 5 (FcRL5), full length, overexpressed on 3T3 or Raji cells (human, UniProt Q96RD9 16-977).
T2 construct: also called 3T3-FcRL5
T2 sequence: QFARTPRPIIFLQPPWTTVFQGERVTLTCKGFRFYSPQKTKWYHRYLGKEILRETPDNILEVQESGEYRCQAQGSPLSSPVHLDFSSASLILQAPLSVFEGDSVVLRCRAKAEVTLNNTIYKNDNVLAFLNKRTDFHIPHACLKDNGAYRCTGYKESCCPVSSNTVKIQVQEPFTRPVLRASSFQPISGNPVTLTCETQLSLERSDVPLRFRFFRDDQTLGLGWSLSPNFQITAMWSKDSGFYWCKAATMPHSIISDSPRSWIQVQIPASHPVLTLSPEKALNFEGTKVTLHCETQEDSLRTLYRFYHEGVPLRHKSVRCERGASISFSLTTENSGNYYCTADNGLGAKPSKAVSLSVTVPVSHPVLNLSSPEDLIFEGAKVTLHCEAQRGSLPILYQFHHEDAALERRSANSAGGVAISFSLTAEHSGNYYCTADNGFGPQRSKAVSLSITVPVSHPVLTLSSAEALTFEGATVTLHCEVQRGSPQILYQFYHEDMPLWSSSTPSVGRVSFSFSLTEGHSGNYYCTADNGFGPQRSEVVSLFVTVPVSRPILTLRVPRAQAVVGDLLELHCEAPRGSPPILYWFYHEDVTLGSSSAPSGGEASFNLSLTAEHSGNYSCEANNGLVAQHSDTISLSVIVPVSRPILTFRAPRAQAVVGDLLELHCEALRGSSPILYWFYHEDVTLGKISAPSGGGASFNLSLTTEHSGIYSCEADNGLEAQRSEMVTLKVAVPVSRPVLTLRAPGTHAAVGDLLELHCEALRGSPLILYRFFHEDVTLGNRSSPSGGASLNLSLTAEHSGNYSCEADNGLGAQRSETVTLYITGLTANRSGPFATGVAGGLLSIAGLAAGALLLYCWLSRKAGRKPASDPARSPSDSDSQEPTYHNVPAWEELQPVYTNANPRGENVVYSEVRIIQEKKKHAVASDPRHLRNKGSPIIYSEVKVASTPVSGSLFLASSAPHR
The assay is described as follows: phage clone screening on cells. As to the method:
Once selected, positive scFv clones are further tested for their binding to FcRL5 (e.g., human FcRL5) on live 3T3 cell surfaces by flow cytometry. Briefly, phage clones are incubated with 3T3 cells over-expressing FcRL5. The cells are washed and then incubated with a mouse anti-M13 coat protein mAb. Cells are washed again and labeled with a PE-horse anti-mouse Ig prior to flow cytometry.
Phage′ display against FcRL5 was performed to enrich for scFv phage clones that bind to FcRL5 specifically. Screening was carried out on FcRL5 overexpressing 3T3 cells or 3T3 cells expressing FcRL1, 2, 3, 4 or 6 as a negative control (FIG. 2).

B1: ET200-016 (scFv)
scFv: SSELTQDPAVSVALGQTVKITCQGDSLTDYHATWYQQKPGQAPVAVIYATNNRPTGIPDRFSGSSSGNTASLTITGAQAEDEADYYCNSRDSGTDEVLFGGGTKLTVLGSRGGGGSGGGGSGGGGSLEMAEVQLVETGGGLVKPGGSLRLSCAASGFTFSSYSMNWVRQAPGKGLEWVSSISSSSSYIYYADSVKGRFTISRDNAKNSLYLQMNSLRAEDTAVYYCARGQGYDYWGQGTLVTVSSTSGQAGQHHHHHHGAYPYDVPDYAS
notes: screened as phage clone; entry is VL-linker-VH-His tag-HA tag
In the case of B1, the binding result in assay [1] is listed as “no binding”; in assay [2] it was “binds”.

B2: ET200-019 (scFv)
scFv: NFMLTQPHSVSESPGKTVTISCTRSSGSIASNYVQWYQQRPGSAPTTVIYEDNQRPSGVPDRFSGSIDSSSNSASLTISGLKTEDEADYYCQSYDSSNSWVFGGGTKLTVLGSRGGGGSGGGGSGGGGSLEMAQVQLVQSGAEVKRPGSSVKVSCTASGGTFSSDAISWVRQAPGQGLEWMGGIIPMFGTANYAQKFQGRVTITADESTSTAYMELSSLRSEDTAVYYCAREGYYYPSAYLGSVLNDISSVYDEWGQGTLVTVSSTSGQAGQHHHHHHGAYPYDVPDYAS
notes: as for B1
On to B2, for which the values for the binding result in assay [1] and in assay [2] were “no binding” and “binds”, respectively.

B3: ET200-013 (scFv)
scFv: QSVVTQPPSVSGAPGQRVTISCTGSTSNIGAGYDVHWYQQLPGTAPKLLIYTNNFRPSGVPDRFSASKSGTSASLAITGLQAEDEADYYCGTWDSSLSAVVFGGGTKLTVLGSRGGGGSGGGGSGGGGSLEMAEVQLVESGTEVKKPGASVKVSCKASGYMFTSYGLNWVRQAPGQGLEWMGWISANNGKTNYAKKFQDRVTMTRDTSTSTGYMELRSLRSDDTAVYYCARHIGGSYFDRWGQGTLVTVSSTSGQAGQHHHHHHGAYPYDVPDYAS
notes: as for B1
As for B3, the binding result in assay [1] is recorded as “no binding”; in assay [2], “binds”.

B4: ET200-018 (scFv)
scFv: QAVLTQPPSTSGTPGQRVTISCSGSSSNIGRNGVNWYQQLPGAAPKVLIYNDNQRPSGVPDRVSGSQSGSSGTLAIDGLRSEDEADYYCAAWDDSLHGVVFGGGTKLTVLGSRGGGGSGGGGSGGGGSLEMAQVQLVQSGAEVKKPGASVKVSCKVSGYTLNELSMHWVRQAPGKGLEWMGGFDPEDGETIYAQKFQGRVTMTEDTSTDTAYMELSSLRSEDTAVYYCARGGYGDSWGQGTLVTVSSTSGQAGQHHHHHHGAYPYDVPDYAS
notes: as for B1
In the case of B4, the binding result is “no binding” in assay [1] and “binds” in assay [2].

B5: ET200-015 (scFv)
scFv: QSVVTQPPSVSVAPGKTARITCGGNNIGSKSVHWYQQKPGQAPVLVIYYDSDRPSGIPERFSGSNSGNTATLTISRVEAGDEADYYCQVWDSSSDVVFGGGTKLTVLGSRGGGGSGGGGSGGGGSLEMAEVQLVQSGAEVKKPGASVKVSCKASGYTFTSYGISWVRQAPGQGLEWMGWISAYNGNTNYAQKLQGRVTMTTDTSTSTAYMELRSLRSDDTAVYYCARWGGFGAVDHWGQGTLVTVSSTSGQAGQHHHHHHGAYPYDVPDYAS
notes: as for B1
In the case of B5, the values for the binding result in assay [1] and in assay [2] were “no binding” and “binds”, respectively.

B6: ET200-012 (scFv)
scFv: QSVLTQPPSVSAAAGQKVTISCSGSDSNIGNNYVSWYQHLPGTAPKLLIYDVKNRPSGIPDRFSGSKSGSSATLGIAGLQPGDEADYYCGTWDSRLDAYVFGTGTKVTVLGSRGGGGSGGGGSGGGGSLEMAQMQLVQSGAEVKKPGASVKVSCKTSGFPFNIFGITWVRQAPGQGLEWMGWISGYNGNTDYPQKFQGRVTMSTDTSTSTAYMELRNLKSDDTAVYYCARGAYGGMDTWGQGTLVTVSSTSGQAGQHHHHHHGAYPYDVPDYAS
notes: as for B1
Turning to B6, the binding result is “no binding” in assay [1] and “binds” in assay [2].

B7: ET200-021 (scFv)
scFv: QSVLTQPPSVSAAPGQKVTISCSGSNSNIGNNYVSWYQQLPGTAPKLLIYDNNKRPSGIPDRFSGSRSGTSATLGITGLQTGDEADYYCGTWNTTVTPGYVFGTGTKVTVLGSRGGGGSGGGGSGGGGSLEMAEVQLVQSGAEVKKPGASVKVSCKASGYTFTSYGISWVRQAPGQGLEWMGWISAYNGNTNYAQKLQGRVTMTTDTSTSTAYMELRSLRSDDTAMYYCARSVYDLDTWGQGTLVTVSSTSGQAGQHHHHHHGAYPYDVPDYAS
notes: as for B1
Take B7: the values for the binding result in assay [1] and in assay [2] were “no binding” and “binds”, respectively.

B8: ET200-011 (scFv)
scFv: QSVVTQPPSVSAAPGQRVTISCSGSSSNISIYDVSWYQQLPGTAPKLLIYGNNKRPSGIADRFSGSTSGTSATLGITGLQTGDEADYYCGTWDDSLSGGVFGGGTKLTVLGSRGGGGSGGGGSGGGGSLEMAQMQLVQSGAEVKKPGSSVKVSCEASGGTLSSYAINWVRQAPGQGLEWMGGIIPMFGTAHYAQKFQGRVTITADESTKTAYMELSSLRSEDTAVYYCARGVHYASFDHWGQGTLVTVSSTSGQAGQHHHHHHGAYPYDVPDYAS
notes: as for B1
Regarding B8, the binding result in assay [1] is “no binding”; in assay [2], “binds”.

B9: ET200-014 (scFv)
scFv: SYVLTQPPSVSVAPGKTARITCGGNNIGSKSVHWYQQKPGQAPVLVIYYDSDRPSGIPERFSGSNSGNTATLTISRVEAGDEADYYCQVWDSSSDHYVFGTGTKVTVLGSRGGGGSGGGGSGGGGSLEMAEVQLVETGGGLVQPGGSLRLSCAASGFTFSSYAMSWVRQAPGKGLEWVSAISGSDGSTYYADSVKGRFTISRDNSKNTLYLQMNSLRDEDTAVYYCARSHEANLVGDWWGQGTLVTVSSTSGQAGQHHHHHHGAYPYDVPDYAS
notes: as for B1
With B9, the values for the binding result in assay [1] and in assay [2] were “no binding” and “binds”, respectively.

B10: ET200-020 (scFv)
scFv: QSVVTQPPSVSAAPGQKVTISCSGSTSNIGNNDVSWYQQLPGTAPKLLIYDNNKRPSGIPDRFSGSKSGTSATLGITGLQTGDEADYYCGTWDSSVSASWVFGRGTKLTVLGSRGGGGSGGGGSGGGGSLEMAQVQLVQSGAEVKKPGASVKVSCKASGYTFTSYGISWVRQAPGQGLEWMGWISAYNGNTNYPQKLQGRVTMTTDPSTSTAYMELRSLRSDDTAVYYCARSMTSFDYWGQGTLVTVSSTSGQAGQHHHHHHGAYPYDVPDYAS
notes: as for B1
With B10, the binding result in assay [1] is recorded as “no binding”; in assay [2] it was “binds”.

B11: ET200-017 (scFv)
scFv: SYVLTQPPSVSVAPGKTARITCGGNNIGSKSVHWYQQKPGQAPVLVVYDDSDRPSGIPERFSGSNSGNTATLSISRVEAGDEADYYCQVWDSSSDHTVFGTGTKVTVLGSRGGGGSGGGGSGGGGSLEMAQVQLQQWGAGLLKPSETLSLTCAVYGGSFSGYYWSWIRQPPGKGLEWIGEINHSGSTNYNPSLKSRVTISVDTSKNQFSLKLSSVTAADTAVYYCARYYPGMDMWGQGTLVTVSSTSGQAGQHHHHHHGAYPYDVPDYAS
notes: as for B1
Turning to B11, the binding result in assay [1] was “no binding”; in assay [2] it was “binds”.

B12: ET200-022 (scFv)
scFv: QSVVTQPPSVSAAPGQKVTISCSGSSSNIGNNYVSWYQQLPGTAPKLLIYDNNKRPSGIPDRFSGSKSGTSATLGITGLQTGDEADYYCGTWDSSLGAPYVFGTGTKVTVLGSRGGGGSGGGGSGGGGSLEMAEVQLVQSWGGSEQPGRSLRLSCAASGFTFDDYAMHWVRQAPGKGLEWVSGISWNSGSIGYADSVKGRFTISRDNAKNSLYLQMNSLRAEDTAMYYCARYRQVGSAYDSWGQGTLVTVSSTSGQAGQHHHHHHGAYPYDVPDYAS
notes: as for B1
Regarding B12, the binding result is listed as “no binding” in assay [1] and “binds” in assay [2].

The record behind these values is US20210388081A1 (Memorial Sloan Kettering, published 2021).
